Values belong to the molecule of their own block, whether it stands above or below them. Where no end group is shown, it is not given here.
Tests used:
PTH/PTHrP receptor = biological target: T1, PTH/PTHrP receptor (Homo sapiens, UniProt Q03431); assay: Competition radioligand binding, COS-7 cells transfected with human PTH/PTHrP receptor; details: COS-7 cells, radioligand 125I-[Nle8,21,Y34]rPTH-(1-34)NH2, 2 hours at room temperature, mean ± s.e.m.
T1 construct: expressed in transfected cells; host or cells: COS-7 cells, transient transfection, vector pcDNA-1
T1 sequence (Q03431 27-593): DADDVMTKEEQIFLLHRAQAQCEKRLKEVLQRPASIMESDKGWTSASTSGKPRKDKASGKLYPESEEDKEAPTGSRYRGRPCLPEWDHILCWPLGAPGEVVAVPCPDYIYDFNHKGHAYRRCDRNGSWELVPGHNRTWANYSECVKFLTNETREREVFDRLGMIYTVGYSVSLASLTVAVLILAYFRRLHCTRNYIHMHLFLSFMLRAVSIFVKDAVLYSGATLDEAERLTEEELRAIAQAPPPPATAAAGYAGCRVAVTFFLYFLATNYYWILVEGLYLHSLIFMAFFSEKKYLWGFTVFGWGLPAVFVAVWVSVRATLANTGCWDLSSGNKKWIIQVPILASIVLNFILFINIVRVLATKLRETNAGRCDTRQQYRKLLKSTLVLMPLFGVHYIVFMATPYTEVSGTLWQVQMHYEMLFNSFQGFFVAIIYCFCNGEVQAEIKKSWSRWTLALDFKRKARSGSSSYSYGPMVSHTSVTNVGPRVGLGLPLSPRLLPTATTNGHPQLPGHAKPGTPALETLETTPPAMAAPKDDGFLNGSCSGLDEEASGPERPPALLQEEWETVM
Procedure: (§1) The cDNAs encoding the human PTH/PTHrP receptor (Schipani, E. et al., Endocrinology 132:2157-2165 (1993)) and the human PTH-2 receptor (Usdin, T. et al., J. Biol. Chem. 270:15455-15458 (1995)) were carried on the expression vectors pcDNA-1 and pcDNAI/Amp (InVitrogen, San Diego, Calif.), respectively. COS-7 cells were cultured and transfected as described previously (Lee, C. et al., Mol. Endocrinol. 9:1269-1278 (1995)). Cells were transfected in 24-well plates using plasmid DNA (200 ng/well) purified by cesium chloride/ethidium bromide gradient centrifugation. Ligand binding and cAMP accumulation assays were performed three days after transfection, by which time the cell density reached 500,000±100,000 cells/well.
(§2) Binding reactions were performed as described previously. Id. Each well (final volume: […]) contained 26 fmole of ^125I-[Nle^8,21,Tyr^34]rPTH(1-34)NH2 (100,000 CPM) and various amounts (0.4-300 pmole) of an unlabeled competitor ligand, both diluted in binding buffer (50 mM Tris-HCl, pH 7.7, 100 mM NaCl, 5 mM KCl, 2 mM CaCl, 5% heat-inactivated horse serum, 0.5% heat-inactivated fetal bovine serum). Incubations were at room temperature for 2 hours, except for experiments involving Scatchard analysis, which were performed at 4° C. for 6 hours. At the end of the binding reaction, the cells were rinsed 3 times with 0.5 ml of binding buffer, lysed with 0.5 ml of 5M NaOH, and the entire lysate was counted. Nonspecific binding of tracer (NSB), determined in wells containing 1 μM of [NleTyr^8,21,Tyr^34]rPTH-(1-34)NH2, was ˜1% of total counts added. Maximum specific binding (B0) was calculated as the total radioactivity bound to cells in the absence of unlabeled PTH ligand, minus NSB. […] For Scatchard analyses, homologous competition binding studies were performed that used ^125I-[-NleTyr^8,21,Tyr^34]rPTH-(1-34)NH2 (26 fmole/well) and varying amounts (1.2-300 pmol) of the same unlabeled ligand. Estimates of the number of receptors/cell derived from these studies assumed a single class of binding sites and a transfection efficiency of 20% (Abou-Samra, A. B. et al., Proc. Natl. Acad. Sci (USA) 89:2732-2736 (1992)).

PTH-2 receptor = biological target: T2, PTH-2 receptor (Homo sapiens, UniProt P49190); assay: Competition radioligand binding, COS-7 cells transfected with human PTH-2 receptor; details: COS-7 cells, radioligand 125I-[Nle8,21,Y34]rPTH-(1-34)NH2, 2 hours at room temperature, mean ± s.e.m.
T2 construct: expressed in transfected cells; host or cells: COS-7 cells, transient transfection, vector pcDNAI/Amp
T2 sequence (P49190 25-550): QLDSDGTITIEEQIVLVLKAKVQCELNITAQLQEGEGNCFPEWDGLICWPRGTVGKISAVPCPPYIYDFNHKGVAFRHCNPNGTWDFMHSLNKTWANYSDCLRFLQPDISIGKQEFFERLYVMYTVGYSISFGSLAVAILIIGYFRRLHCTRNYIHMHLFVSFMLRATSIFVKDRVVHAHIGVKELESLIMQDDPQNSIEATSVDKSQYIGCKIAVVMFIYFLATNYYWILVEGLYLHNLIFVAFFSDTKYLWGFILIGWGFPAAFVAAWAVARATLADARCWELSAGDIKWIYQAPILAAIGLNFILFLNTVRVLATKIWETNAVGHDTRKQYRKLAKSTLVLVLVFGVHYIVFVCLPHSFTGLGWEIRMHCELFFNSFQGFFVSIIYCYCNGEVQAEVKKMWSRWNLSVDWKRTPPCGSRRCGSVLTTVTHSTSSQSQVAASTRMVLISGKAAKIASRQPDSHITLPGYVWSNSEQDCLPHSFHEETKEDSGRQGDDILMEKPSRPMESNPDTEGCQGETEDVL
Procedure: as §1, §2

human PTH/PTHrP receptor = biological target: T3, human PTH/PTHrP receptor (human, UniProt Q03431 27-593); assay: radioligand competition (tracer 125I-[Nle8,21,Tyr34]rPTH-(1-34)NH2) on transfected COS-7 cells, RT 2 h
T3 construct: whole, on cells; Transiently expressed on COS-7 cells
T3 sequence (looked up): T1 sequence (Q03431 27-593)
Procedure: (§3) Assays were performed for 2 hours at room temperature. Data are the mean (± s.e.m.) of IC$50$ values obtained from the number of experiments indicated (n).
(§4) Binding reactions were performed as described previously. Id. […] Incubations were at room temperature for 2 hours, except for experiments involving Scatchard analysis, which were performed at 4° C. for 6 hours. At the end of the binding reaction, the cells were rinsed 3 times with 0.5 ml of binding buffer, lysed with 0.5 ml of 5M NaOH, and the entire lysate was counted. […] Estimates of the number of receptors/cell derived from these studies assumed a single class of binding sites and a transfection efficiency of 20% (Abou-Samra, A. B. et al., *Proc. Natl. Acad. Sci* (*USA*) 89:2732–2736 (1992)).

human PTH-2 receptor [1] = biological target: T4, human PTH-2 receptor (human, UniProt P49190 25-550); assay: cell-based or functional assay
T4 sequence (P49190 25-550): as above

human PTH-2 receptor [2] = biological target: T4, human PTH-2 receptor; assay: radioligand competition (tracer 125I-[Nle8,21,Tyr34]rPTH-(1-34)NH2) on transfected COS-7 cells, RT 2 h
Procedure: as §3, §4

IC50 (PTH/PTHrP receptor): > 10 µM
IC50 (PTH-2 receptor): > 10 µM
Molecule: LNSMERVEFLRKKLQDVHNY-NH2 [[F23, Y34]hPTH-(15-34)NH2]

IC50 (human PTH/PTHrP receptor): 1 µM
cAMP accumulation EC50 (human PTH-2 receptor [1]): > 1 µM
cAMP accumulation Maximum (human PTH-2 receptor [1]): 11 pmoles/well
B1: Hybrid-3 hPTHrP-(1-23)/[Y34]hPTH-(24-34)NH2 (peptide)
peptide: AVSEHQLLHDKGKSIQDLRRRFFLRKKLQDVHNY-NH2
notes: Synthetic PTH/PTHrP hybrid ligand; also called PTHrP-(1-23)/PTH-(24-34)

IC50 (human PTH/PTHrP receptor): > 10 µM
Molecule: IQDLRRRFFLHHLIAEIHTAEY-NH2 [[Y36]hPTHrP-(15-36)NH2]

The remaining lines, values behind:

B2: Hybrid-5 hPTHrP-(1-18)/[Y34]hPTH-(19-34)NH2 (peptide)
peptide: AVSEHQLLHDKGKSIQDLERVEWLRKKLQDVHNY-NH2
modifications: also: radioiodinated in direct binding test
notes: Synthetic PTH/PTHrP hybrid ligand; also called radioiodinated hybrid-5 peptide
IC50 (human PTH-2 receptor [2]): 0.5 µM
cAMP accumulation EC50 (human PTH-2 receptor [1]): > 1 µM
cAMP accumulation Maximum (human PTH-2 receptor [1]): 6.2 pmoles/well

Molecule: IQDLRRRFWLHHLIAEIHTAEY-NH2 [[W23, Y36]hPTHrP-(15-36)NH2]
IC50 (human PTH/PTHrP receptor): > 10 µM

Molecule: IQDLRRREWLHHLIAEIHTAEY-NH2 [[E22, W23, Y36]hPTHrP-(15-36)NH2]
IC50 (human PTH/PTHrP receptor): > 10 µM

B3: [I5, W23, Y36]hPTHrP-(1-36)NH2 (peptide)
peptide: AVSEIQLLHDKGKSIQDLRRRFWLHHLIAEIHTAEY-NH2
notes: also called [Ile^5, Trp^23]PTHrP-(1-36); [Ile^5,Trp^32]PTHrP-(1-36) [sic]
IC50 (human PTH-2 receptor [2]): 0.01 µM
cAMP accumulation EC50 (human PTH-2 receptor [1]): 0.0005 µM
cAMP accumulation Maximum (human PTH-2 receptor [1]): 65 pmoles/well

From patent publication US6362163B1, “Parathyroid hormone-related peptide analogs” (The General Hospital Corporation, priority 1996, dated 2002)
